Test results taken from the supplement of paper PMC10126150.
± gives the standard deviation of the averaged measurements.

System: ATP
Experiment: switch fluorescence ratio, 500 uM ATP over buffer (Cy3 cluster intensity, sum of 5 cycles each) (fold (ratio)); higher = stronger signal-on switching upon ATP binding; sequences stand for … in TCGTCGGCAGCGTCAGATGTGTATAAGAGACAGTTTTTTTTTTTTTTTTTTTTTTTTT…TC
Settings: aptamer strand: ATP DNA aptamer (quencher-CACCTGGGGGAGTATTGCGGAGGAAGG + anchor), 100 nM annealed; ATP concentration: 500 uM
Summary of the method: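 Between each of five buffer/ATP cycles, the flow-cell was stripped with NaOH and re-annealed. Each cycle imaged Cy3-labelled switching-strand clusters, annealed to 100 nM quencher-labelled ATP aptamer on a modified Illumina MiSeq flow-cell, first in selection buffer and then after 15 min with 500 uM ATP at 22 °C. The fluorescence ratio is summed target-cycle over summed buffer-cycle Cy3 intensity per cluster, averaged per switch-domain sequence, with clusters outside 100-1000 RFU excluded.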
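Also: ATP exposure 15 min at 22 °C before imaging.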

Sequence | switch fluorescence ratio
AACGTTTTCC | 1.23 ± 0.1
AACTAATTCA | 0.99298 ± 0.00078
AACTACAACG | 1.05 ± 0.018
AACTAGTCAA | 1.015 ± 0.0081
AACTAGTGGC | 0.998 ± 0.049
AACTAGTGGG | 1.02 ± 0.024
AACTCATTCA | 1.02 ± 0.025
AACTGAGAAG | 0.988 ± 0.015
AACTGAGTGC | 1 ± 0.043
AACTGGGGTG | 1.03 ± 0.03
AACTGGTGTC | 1.006 ± 0.003
AACTTACTTT | 1.13 ± 0.021
AACTTCAGCT | 0.995 ± 0.03
AACTTGGCTT | 0.969 ± 0.035
AACTTTTATG | 1 ± 0.026
AACTTTTTAT | 1.04 ± 0.042
AACTTTTTGG | 0.99 ± 0.013
AAGAAAGGGC | 1 ± 0.041
AAGAAAGTGG | 0.993 ± 0.034
AAGAAGACGG | 1.23 ± 0.35
AAGAAGTAGG | 1 ± 0.062
AAGAAGTCCT | 0.983 ± 0.034
AAGAATGCGG | 0.988 ± 0.027

Sequence | switch fluorescence ratio
AAGAATGGCC | 0.954 ± 0.0032
AAGAATGTGT | 0.978 ± 0.056
AAGAATTGCG | 0.97 ± 0.033
AAGACGAGTT | 0.9962 ± 0.0022
AAGACGGGTT | 1.02 ± 0.077
AAGACTGAGG | 0.956 ± 0.026
AAGACTTTTT | 1.025 ± 0.0076
AAGAGAACTT | 0.993 ± 0.013
AAGAGAGAGC | 0.989 ± 0.007
AAGAGAGGGT | 0.998 ± 0.042
AAGAGCACT | 1.05 ± 0.048
AAGAGGATGG | 0.979 ± 0.011
AAGAGGCCCC | 0.9991 ± 0.0067
AAGAGGGGAT | 0.985 ± 0.031
AAGAGGGGCG | 1.022 ± 0.0032
AAGAGGGTAA | 0.963 ± 0.012
AAGAGGTAAA | 0.972 ± 0.025
AAGAGGTTGC | 0.99 ± 0.044
AAGAGTACAT | 0.993 ± 0.034
AAGAGTGCGG | 0.9742 ± 0.0074
AAGAGTGGCT | 1.03 ± 0.017
AAGAGTTGTA | 1.01 ± 0.019
AAGATGAGCT | 1.004 ± 0.0043

Sequence | switch fluorescence ratio
AAGATGCTTA | 0.9863 ± 0.0012
AAGATGGTGG | 1.004 ± 0.0057
AAGATTATGG | 0.984 ± 0.035
AAGATTGCTT | 0.9874 ± 0.0032
AAGATTTGGG | 0.991 ± 0.027
AAGCAGAGGC | 1.004 ± 0.0031
AAGCAGGCGG | 1.02 ± 0.021
AAGCAGGGGT | 0.982 ± 0.074
AAGCCAAGGT | 1.033 ± 0.0084
AAGCCAGGGG | 1.46 ± 0.0077
AAGCCATCCG | 1.07 ± 0.04
AAGCCCGACG | 1.13 ± 0.11
AAGCCCGAGG | 0.981 ± 0.02
AAGCCGCTCG | 1 ± 0.015
AAGCCGGAGC | 1.02 ± 0.053
AAGCCGTTTG | 1.07 ± 0.088
AAGCGAAAAA | 1.01 ± 0.092
AAGCGAAAGA | 1.03 ± 0.014
AAGCGCGACG | 0.991 ± 0.027
AAGCGGAGCC | 0.966 ± 0.023
AAGCGGGAGG | 1.02 ± 0.011
AAGCGGGCCT | 1.02 ± 0.026
AAGCGTAGAT | 1.009 ± 0.0074

Sequence | switch fluorescence ratio
AAGCGTTAGC | 1.01 ± 0.014
AAGCGTTGAG | 1.009 ± 0.0045
AAGCGTTGTA | 1.01 ± 0.02
AAGCTCGACG | 0.9695 ± 0.0026
AAGCTCGCCG | 0.981 ± 0.06
AAGCTGGGAC | 1.08 ± 0.015
AAGCTGGGGG | 0.969 ± 0.033
AAGCTGGTG | 1.09 ± 0.042
AAGGAAAAAC | 1.03 ± 0.029
AAGGAAACGT | 1.04 ± 0.039
AAGGAATAGT | 1.01 ± 0.026
AAGGAATCGC | 1 ± 0.027
AAGGAATGCA | 0.993 ± 0.022
AAGGACGGCC | 0.998 ± 0.026
AAGGAGAATA | 1.03 ± 0.012
AAGGAGCTAT | 1.05 ± 0.026
AAGGAGGGGG | 1.02 ± 0.058
AAGGAGGGTA | 1.01 ± 0.038
AAGGAGTTGT | 0.951 ± 0.05
AAGGAGTTTG | 0.969 ± 0.045
AAGGATCTGC | 0.967 ± 0.052
AAGGATGAGG | 0.987 ± 0.021
AAGGATGTAA | 0.995 ± 0.03

Sequence | switch fluorescence ratio
AAGGATGTTT | 0.9824 ± 0.0033
AAGGCAAATT | 0.986 ± 0.026
AAGGCAAGTC | 1.13 ± 0.091
AAGGCACTTT | 1.02 ± 0.013
AAGGCAGATC | 1.05 ± 0.037
AAGGCAGGTC | 1.02 ± 0.029
AAGGCCCTGA | 0.994 ± 0.012
AAGGCGAGGA | 1.043 ± 0.0043
AAGGCGCTCT | 0.997 ± 0.014
AAGGCGGATT | 1.26 ± 0.36
AAGGCTGAGG | 0.985 ± 0.018
AAGGCTGCGA | 1.018 ± 0.0076
AAGGGAAGGG | 0.998 ± 0.025
AAGGGAAGT | 1.02 ± 0.034
AAGGGAATTA | 0.986 ± 0.015
AAGGGACAAA | 1.04 ± 0.014
AAGGGACGTG | 0.984 ± 0.019
AAGGGAGAAA | 0.984 ± 0.06
AAGGGAGAGA | 1.02 ± 0.011
AAGGGAGCTG | 1.02 ± 0.15
AAGGGAGGGA | 1.01 ± 0.036
AAGGGATACG | 1.02 ± 0.015
AAGGGATAGG | 0.9844 ± 0.001

Sequence | switch fluorescence ratio
AAGGGATTGC | 0.995 ± 0.053
AAGGGCAAAT | 0.978 ± 0.015
AAGGGCCAAT | 1 ± 0.022
AAGGGCCCGT | 1.02 ± 0.022
AAGGGCGCAG | 0.993 ± 0.056
AAGGGCTATA | 1.01 ± 0.047
AAGGGCTGCG | 0.98 ± 0.1
AAGGGCTTCT | 1.01 ± 0.018
AAGGGGAATG | 1.02 ± 0.056
AAGGGGACAG | 0.995 ± 0.03
AAGGGGAGAA | 0.9872 ± 0.008
AAGGGGCGT | 0.9961 ± 0.0036
AAGGGGGCAT | 0.979 ± 0.033
AAGGGGGCCT | 1 ± 0.024
AAGGGGGGA | 1.01 ± 0.072
AAGGGGGTTA | 0.991 ± 0.025
AAGGGGTTCG | 1.05 ± 0.023
AAGGGGTTCT | 1.01 ± 0.016
AAGGGTATAT | 0.9834 ± 0.0063
AAGGGTATTG | 0.995 ± 0.024
AAGGGTCAAA | 0.985 ± 0.048
AAGGGTCAGC | 0.9917 ± 0.0081
AAGGGTCTCG | 1.03 ± 0.095

Sequence | switch fluorescence ratio
AAGGGTGGGA | 1.01 ± 0.039
AAGGGTGGGG | 1 ± 0.058
AAGGGTTAT | 0.995 ± 0.017
AAGGGTTTAA | 0.98 ± 0.018
AAGGTAGTGG | 0.962 ± 0.017
AAGGTCAAGC | 1 ± 0.063
AAGGTCCATG | 0.9631 ± 0.0013
AAGGTCGGGA | 0.9966 ± 0.0087
AAGGTCTTAG | 0.968 ± 0.039
AAGGTGAAGA | 1.04 ± 0.029
AAGGTGATAG | 1 ± 0.019
AAGGTGCGGG | 0.999 ± 0.023
AAGGTGCTGC | 1.035 ± 0.0022
AAGGTGGGCC | 0.985 ± 0.019
AAGGTGGGTT | 1.01 ± 0.059
AAGGTTACCG | 1.04 ± 0.021
AAGGTTAGAC | 1.03 ± 0.012
AAGGTTATGC | 0.987 ± 0.039
AAGGTTCTGA | 0.981 ± 0.016
